Data taken from the DeepSol protein solubility set.

Assay: soluble on expression in E. coli; label from the status in PepcDB or PDB records

| Sequence | soluble on expression in E. coli |
| --- | --- |
| MEMLSGAEMVVRSLIDQGVKQVFGYPGGAVLDIYDALHTVGGIDHVLVRHEQAAVHMADGLARATGEVGVVLVTSGPGATNAITGIATAYMDSIPLVVLSGQVATSLIGYDAFQECDMVGISRPVVKHSFLVKQTEDIPQVLKKAFWLAASGRPGPVVVDLPKDILNPANKLPYVWPESVSMRSYNPTTTGHKGQIKRALQTLVAAKKPVVYVGGGAITAGCHQQLKETVEALNLPVVCSLMGLGAFPATHRQALGMLGMHGTYEANMTMHNADVIFAVGVRFDDRTTNNLAKYCPNATVLHIDIDPTSISKTVTADIPIVGDARQVLEQMLELLSQESAHQPLDEIRDWWQQIEQWRARQCLKYDTHSEKIKPQAVIETLWRLTKGDAYVTSDVGQHQMFAALYYPFDKPRRWINSGGLGTMGFGLPAALGVKMALPEETVVCVTGDGSIQMNIQELSTALQYELPVLVVNLNNRYLGMVKQWQDMIYSGRHSQSYMQSLPDFVRLAEAYGHVGIQISHPHELESKLSEALEQVRNNRLVFVDVTVDGSEHVYPMQIRGGGMDEMWLSKTERT | soluble |
| MENFSLLYSSEEDALLSYADIRNFQLVWNMVDIEQKRSIPVRRVKFLLRLLKGRLEVNDESDGLLFKHMCHEMERLHNGDDVSFHDVLNMLSYRSVDIRKSLQLEELLQREELEYIIEEEVAKHTIRAWLENCLKNIKAKQNNTLGKMSSIGSTFAFPQSQEVLTKGVVLTEASPEEDSLQGDKGSGKKKAQRGNSITEIVAEAQKKSVKRATDKISERRGTLRQMQMGTYDELEEVEEDEDTDGEIRRSSFEYSGVDMIQMSHEKQLEDVKTWWTLCD | not soluble |
| MENKTNNTKTEIKKKDMSKTFETIKGELFFEDKVIQKIIGIALDEIDGLLTIDGGFFSNIAGKLVNTDNTTSGVDVEVGKKQVAVDLSIVAEYGKDVTTIYDKMKQVISNEVKKMTGLDVIEINVNVVDVKTKEQHENDSVTLQDHLSDAASATGEFASKQFEKSKEALGVASEKVSDGVQNVKEETEPRVKLEHHHHHH | soluble |
| MEPEDTQLKEDIKTTVNYIKQHGVEFENKLLEDERFSFIKKDDPLHEYYTKLMNEPTDTVSGEDNDRKSEREIARPPDFLFSQYDTGISRRDMEVIKLTARYYAKDKSIVEQMISKDGEARLNFMNSSHPLHKTFTDFVAQYKRVYSFTGQEIKKSKRTILDNCFERTQYWEFEKDKDREHDKLVELCKIQFAAIPWDKFTQVAKFSIPEDTEIFEGSLDLEQMRLRRVQTGIKLFDSIKPTNEEEKIVSDQGKQKGGDSKGKKRKIRAVGETRLKKSKK | soluble |
| MEPEFLYDLLQLPKGVEPPAEEELSKGGKKKYLPPTSRKDPKFEELQKVLMEWINATLLPEHIVVRSLEEDMFDGLILHHLFQRLAALKLEAEDIALTATSQKHKLTVVLEAVNRSLQLEEWQAKWSVESIFNKDLLSTLHLLVALAKRFQPDLSLPTNVQVEVITIESTKSGLKSEKLVEQLTEYSTDKDEPPKDVFDELFKLAPEKVNAVKEAIVNFVNQKLDRLGLSVQNLDTQFADGVILLLLIGQLEGFFLHLKEFYLTPNSPAEMLHNVTLALELLKDEGLLSCPVSPEDIVNKDAKSTLRVLYGLFCKHTQKAHRDRTPHGAPN | soluble |
| MEPHLKIDVSSASGSTTTGATASTSEAPQDSQAQQTMPPPSSDWSNQFNSPEAEDMGPFVEQLLPFVRASAYNWFHLQAAKRRHFKEFDKKMCASEENAKLAELQNDRDELKVKWASRLLGKIKKDIQNDDKEAFISAINGSEPNKCIISVADQKGKMRRIDCLRQADKVWRLDLVTIILFKGIPLESTDGERLERSEACVHPLCINPFHMAISVRGLDVFMANYLKDVDTKITLTYPRNDELSDTVMVKQEPGEQTIVAPHAVLGTSSTHTRVWETNSERNAETIIITYDPQKACHTYFGGRATLAQQSLSAGNTYMVNKTAVDNNFFNAKRSVLCLPPPPIQNCFPYPIAGTSDSQQMDMSEDSNDGPSEKRSRDISSHDSPNSSTNDEVRRIVESGTEKLVLGSSIWAAPGQFSRTQQNQGAPGTSRQVRPLPDFQSQDSARSPGAFRSTAKPVCRMTVNTGNHGDVGVVVVDERNREHVIHAQHIVNALSSLRTTPSMRESPVGRKRMHPHTSNSFEFLNCNQEMNKNEGALGSDISPTHTAVSNLISRESSGYMASPTKFTTARGDTTSFSKIFQKIEEKHLQHNQPSTSYCNSQIQPPILSSKPVDSSVKLIAPVAVKPIMSGCNSIIPSPITTPRITPSFRMLEDDSLINVLGQLAHSNDGTTLNDSFIQHLIDTNSRSPLLSSGNAFSALSMGARIEFVGCSNGIGRSSKYCTGRPANSKCNVTSSSRAANQAPVSNTPQDPNAPKLPTDFSHALRNEKK | not soluble |
| MEPKRIREGYLVKKGSVFNTWKPMWVVLLEDGIEFYKKKSDNSPKGMIPLKGSTLTSPCQDFGKRMFVLKITTTKQQDHFFQAAFLEERDAWVRDIKKAIKCIEGGQKFARKSTRRSIRLPETIDLGALYLSMKDPEKGIKELNLEKDKKVFNHCLTGSGVIDWLVSNKLVRNRQEGLMISASLLSEGYLQPAGDLSKNAADGIAENPFLDSPDAFYYFPDSGFFCEENSSDDDVILREEFRGVIIKQGCLLKQGTGENWKVRKFILREDPAYLHYYDPAGGEDPLGAVHLRGCVVTSVESSHDVKKSDEENLFEIITADEVHYYLQAATSKGRTEWIKAIQVASRTGK | soluble |
| MEPNPSDPVLTDRIQAIVTTEKSIDEMMKCAREIIQDLGKEKQIGKNKMEDNANNFKKLITQVENELSAQMQYLSHVCVGSSHQGSTFGVLQNSLLAQSGLSSLHSELFQIVRYLDPTSDEPQTTEEDEEDGSDDLNEDGADGAPSSTVTSSTTDGSGGGDDAASSSAPRSQEESGRQMTDDDDDMEQ | not soluble |
| MEPSTIVKLDVGGKIFKTTIFTLCKHDSMLKTMFCTDVPVTKNEEGSVFIDRDSKHFRLILNFLRDGQIALPDSDREVREVLAEASYFLLDPLIELCGERLEQSLNPYYHLVSTVLEARKIIFATEKPIVVLRLPVYIATSGNQSYYFSETKFRELSEEYHKHVAFILITEPEFNEDCSWSFFLRAKKITARIKGPMDCNLVEECMPKTVERRREKKTWH | not soluble |
| MEQLGSEPETYQIMKTIEKSIIENDNVDLEQYLLFWEHVCNVMCSWGTIFSFVVKDVTAKLEKLTQMRSSDPDSYRTIIGMATKESENGTIRNQKPNRSGTGHLMVLNRALEFVIDLLDGVFTSNDENVSTIARSSYDKHLSQLHSWPIRTAVAAALYTLPRKPEFLCRLRGDMPEDDDNQFHDIFNRDGRDIVRRVNKLVENFELTDYNPSA | not soluble |
| MEQLTLQVEGMSCGHCVNAIESSVKELNGVEQVKVQLAEGTVEVTIDSSVVTLKDIVAVIEDQGYDVQ | not soluble |
| MEQQLKDIISACDLAIQNEDFDTLMNYYSEDAVLVVKPGMIARGKEEIKKAFITIANYFNHHIVPTQGKMILLEAGDTVLVLSQTLLDSDKKDSEYAMERRATYVFKKNAQGEWLCVIDNSYGTDLIGVMAGDPLEHHHHHH | soluble |
| MEQRFPELNVDLSFEQEFQMRVMEEQVSAMSLQEARELLLQASRLLMMKDNVIRSLVKRAARS | soluble |
| MEQVIAQVIKRQQTEERPPDVLSQQTTKYEKRNSASLRKRKNSSKLYLKTDQNWMALREKLASNSIHDKGKYRQKRESNVTCFKSGVESGIQNSSVRSRETQVTFCDGTVPSQGLELANSKSTAEISSRNEIPRLTKVVALDCEFVGVGKLGKEHSLARVSIVNFKGEVLYDKYVLNDKEPVVDYRTSVSGIRPEHLRSSDAVSFEQAQRDVYSIIRNRILVGHAIHHDMHALLLSHPRKLIRDTSKWRGLRSHHLSRKTPSLRKLAQEILGIRIQDGEHDSVEDARATLMIYKRFAKEWEMELQTKKVKLARKKHR | soluble |
| MEQVVIVDAIRTPMGRSKGGAFRNVRAEDLSAHLMRSLLARNPSLTAATLDDIYWGCVQQTLEQGFNIARNAALLAEIPHSVPAVTVNRLCGSSMQALHDAARMIMTGDAQVCLVGGVEHMGHVPMSHGVDFHPGLSRNVAKAAGMMGLTAEMLSRLHGISREMQDQFAARSHARAWAATQSGAFKTEIIPTGGHDADGVLKQFNYDEVIRPETTVEALSTLRPAFDPVSGTVTAGTSSALSDGAAAMLVMSESRARELGLKPRARIRSMAVVGCDPSIMGYGPVPASKLALKKAGLSASDIDVFEMNEAFAAQILPCIKDLGLMEQIDEKINLNGGAIALGHPLGCSGARISTTLINLMERKDAQFGLATMCIGLGQGIATVFERV | soluble |
